Measurements taken from EP4011904A1 (Bayer Aktiengesellschaft, dated 2022).
Positions of bridges follow the written chain, without caps; N, C: chain ends.

Key:
Test in all cases: cell-based or functional assay
[1] = target: recombinant human MASP2 (amino acids 297-686, C-terminal His Tag) (human, UniProt O00187 297-686)
[2] = target: T1, recombinant human MASP1 (amino acids 297-699, C-terminal His Tag) (human, UniProt P48740 297-699)
T1 sequence: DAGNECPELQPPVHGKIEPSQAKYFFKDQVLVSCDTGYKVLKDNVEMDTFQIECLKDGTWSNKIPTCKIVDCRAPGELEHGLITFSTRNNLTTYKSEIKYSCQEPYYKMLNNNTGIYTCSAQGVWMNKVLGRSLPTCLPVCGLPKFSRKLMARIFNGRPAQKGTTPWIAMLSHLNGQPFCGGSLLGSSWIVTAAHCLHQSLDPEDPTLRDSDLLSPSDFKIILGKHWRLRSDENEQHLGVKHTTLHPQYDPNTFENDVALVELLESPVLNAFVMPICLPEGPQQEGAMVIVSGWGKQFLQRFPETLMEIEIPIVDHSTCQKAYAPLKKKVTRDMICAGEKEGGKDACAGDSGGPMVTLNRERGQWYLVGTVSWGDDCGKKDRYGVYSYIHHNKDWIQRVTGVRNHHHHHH

[3] = target: T2, recombinant rat MASP1 (amino acids 302-704, C-terminal His Tag) (rat, UniProt Q8CHN8 302-704)
T2 sequence: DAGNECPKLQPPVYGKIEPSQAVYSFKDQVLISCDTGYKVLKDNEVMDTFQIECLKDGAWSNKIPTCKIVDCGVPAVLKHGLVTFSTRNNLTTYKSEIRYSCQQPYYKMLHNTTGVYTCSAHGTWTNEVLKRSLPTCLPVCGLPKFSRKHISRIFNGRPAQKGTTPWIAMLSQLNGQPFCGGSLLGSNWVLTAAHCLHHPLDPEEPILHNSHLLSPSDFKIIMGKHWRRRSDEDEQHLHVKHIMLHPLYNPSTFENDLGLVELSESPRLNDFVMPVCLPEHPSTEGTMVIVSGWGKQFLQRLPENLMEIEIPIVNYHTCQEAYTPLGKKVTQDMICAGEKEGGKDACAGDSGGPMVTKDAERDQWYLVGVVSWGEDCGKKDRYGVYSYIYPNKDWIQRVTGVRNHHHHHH

[4] = target: recombinant rat MASP2 (amino acids 296-685, C-terminal His Tag) (rat, UniProt Q9JJS8 296-685)
Sequence of recombinant rat MASP2 (amino acids 296-685, C-terminal His Tag) (Q9JJS8 other isoform, or with tags, fused parts or gaps limits assumed, form in doubt): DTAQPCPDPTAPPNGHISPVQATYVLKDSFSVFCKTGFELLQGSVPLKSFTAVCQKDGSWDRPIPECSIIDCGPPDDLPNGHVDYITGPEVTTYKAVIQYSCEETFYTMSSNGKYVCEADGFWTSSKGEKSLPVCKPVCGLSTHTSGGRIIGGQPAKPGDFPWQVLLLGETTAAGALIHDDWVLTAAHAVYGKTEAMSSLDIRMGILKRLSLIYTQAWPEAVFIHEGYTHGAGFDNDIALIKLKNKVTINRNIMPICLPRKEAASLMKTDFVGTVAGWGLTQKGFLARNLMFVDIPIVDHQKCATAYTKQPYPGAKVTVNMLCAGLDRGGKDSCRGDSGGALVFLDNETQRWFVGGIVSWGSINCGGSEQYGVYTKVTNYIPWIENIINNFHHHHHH

Sequence of recombinant human MASP2 (amino acids 297-686, C-terminal His Tag) (O00187 other isoform, or with tags, fused parts or gaps limits assumed, form in doubt): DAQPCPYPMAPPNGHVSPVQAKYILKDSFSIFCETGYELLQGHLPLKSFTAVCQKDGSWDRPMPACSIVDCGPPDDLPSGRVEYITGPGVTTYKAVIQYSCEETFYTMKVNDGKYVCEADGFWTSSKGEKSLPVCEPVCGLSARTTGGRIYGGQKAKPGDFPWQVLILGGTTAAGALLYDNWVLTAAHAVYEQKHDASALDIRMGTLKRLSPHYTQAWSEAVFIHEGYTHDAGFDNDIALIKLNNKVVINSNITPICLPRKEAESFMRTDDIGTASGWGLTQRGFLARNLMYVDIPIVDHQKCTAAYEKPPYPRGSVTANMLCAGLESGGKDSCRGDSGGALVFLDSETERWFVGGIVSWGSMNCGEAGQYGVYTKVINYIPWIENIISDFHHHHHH

cyclo(GRCTKSIPPICFPD) (disulfide 3-11; also: TFA salt) [Bicyclic SFTI-1: G**RC+TKSIPPIC+FPD**]
human MASP2 IC50 [1]: > 3000 nM | human MASP1 IC50 [2]: > 3000 nM | rat MASP1 IC50 [3]: 1000 nM | rat MASP2 IC50 [4]: 1000 nM
